Results from patent US10072299B2, “Antibodies against epidermal growth factor receptor (EGFR) and uses thereof” (Merrimack Pharmaceuticals, Inc., priority 2011, dated 2018).

Assays:
[1] = conversion of irinotecan by nonspecific carboxylesterases; cited from earlier work
phospho-ERK = phospho-ERK ELISA in A431 cells; format: cell-based, human
Experimental: Cells are serum starved in 1% FBS medium with antibiotics and 2 mM L-glutamine for about 20 hours at 37° C. and 5% carbon dioxide. Cells are then preincubated with varying concentrations of anti-EGFR antibodies for 2 hrs, and then stimulated with human EGF ligand (50 ng/ml) (PeproTech, cat # AF-100-15) for 10 minutes at 37° C. and 5%/carbon dioxide. […] Lysates are either analyzed immediately by ELISA for ERK (a downstream effector of EGFR) and EGFR phosphorylation, or frozen at −80° C. until use.
The phospho-ERK ELISA is performed similarly to the phospho-EGFR ELISA with the following changes: Human pERK ELISA Duoset kit is purchased from R&D Systems (cat# DYC1018-5) and used as recommended by the manufacturer.
A431 cells were treated with a dilution series of antibody and phospho-ERK inhibition measured by ELISA.
Experiments were performed with rhEGF (PeproTech) dosed at a concentration of 50 ng/mL or 500 ng/mL.

mouse EGFR = mouse EGFR (Mus musculus, UniProt Q01279); test: Cross reactivity with mouse EGFR; format: binding
phospho-EGFR = phospho-EGFR ELISA in A431 cells; format: cell-based, human; details: EGF stimulated

## CCc1c2c(nc3ccc(O)cc13)-c1cc3c(c(=O)n1C2)COC(=O)[C@]3(O)CC [SN-38, 7-Ethyl-10-hydroxy-camptothecin]
[1]
  activity of metabolite relative to irinotecan: 100-1000 fold

B1: P1X: affinity matured anti-EGFR monoclonal antibody (Bin1) of parental ca; VH SEQ ID NO: 19, VL SEQ ID NO: 20 (antibody, V domains shown)
VH: MGFGLSWLFLVAILKGVQCQVQLVQSGAEVKKPGSSVKVSCKASGGTFSSYAISWVRQAPGQGLEWMGSIIPIFGTVNYAQKFQGRVTITADESTSTAYMELSSLRSEDTAVYYCARDPSVNLYWYFDLWGRGTLVTVSS
VL: MGTPAQLLFLLLLWLPDTTGDIQMTQSPSTLSASVGDRVTITCRASQSISSWWAWYQQKPGKAPKLLIYDASSLESGVPSRFSGSGSGTEFTLTISSLQPDDFATYYCQQYHAHPTTFGGGTKVEIK
phospho-ERK; 80 nM of EGF ligand
  phospho-ERK inhibition with 80 nM EGF (in words): partial
phospho-ERK; EGF 50 ng/ml, dilution series
  phospho-ERK inhibition (in words): dose-dependent inhibition of phospho-ERK activity
Mouse EGFR
  cross reaction with (binding to) mouse EGFR: cross reacts with (binds to) mouse EGFR

B2: P3X: affinity matured anti-EGFR monoclonal antibody (Bin3) of parental ch; VH SEQ ID NO: 23, VL SEQ ID NO: 24 (antibody, V domains shown)
VH: MGFGLSWLFLVAILKGVQCQVQLVQSGAEVKKPGASVKVSCKASGYAFTSYGINWVRQAPGQGLEWMGWISAYNGNTYYAQKLRGRVTMTTDTSTSTAYMELRSLRSDDTAVYYCARDLGGYGSGSVPFDPWGQGTLVTVSS
VL: MGTPAQLLFLLLLWLPDTTGEIVMTQSPATLSVSPGERATLSCRASQSVSSNLAWYQQKPGQAPRLLIYGASTRATGIPARFSGSGSGTEFTLTISSLQSEDFAVYYCQDYRTWPRRVFGGGTKVEIK
phospho-EGFR
  phospho-EGFR inhibition, single antibody (in words): partial phospho-EGFR inhibition
